Experimental data: patent publication US20060018906A1

Molecular target: human tumor necrosis factor-α (TNFα) (human) (UniProt P01375)
Assay: cell-based or functional assay

Chain of human tumor necrosis factor-α (TNFα) (human) (P01375 77-233): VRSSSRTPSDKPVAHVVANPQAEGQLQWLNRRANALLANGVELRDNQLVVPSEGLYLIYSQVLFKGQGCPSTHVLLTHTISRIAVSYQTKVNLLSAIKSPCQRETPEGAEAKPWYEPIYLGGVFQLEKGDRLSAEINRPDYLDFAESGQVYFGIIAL

B1: chimeric mouse/human IgG1 anti-platelet mAb (7E3) (antibody, INN chains, looked up, V domains shown)
VH: EVQLQQSGTVLARPGASVKMSCEASGYTFTNYWMHWVKQRPGQGLEWIGAIYPGNSDTSYIQKFKGKAKLTAVTSTTSVYMELSSLTNEDSAVYYCTLYDGYYVFAYWGQGTLVTVSA
VL: EIVLTQSPVTLSVTPGDSVSLSCRASRDISNNLHWFQQTSHESPRLLIKYASQSMSGIPSRFSGSGSGTDFTLSINSVETEDFGMYFCQQTNSWPYTFGGGTKLEIK
modifications: IgG1
  IL-6 concentration in FS-4 fibroblast supernatant; rhTNF 0.3 ng/ml, antibody 4 µg/ml: 1.6 ng/mL
  IL-6 concentration in FS-4 fibroblast supernatant; rhTNF 1.5 ng/ml, antibody 4 µg/ml: 1.96 ng/mL
  IL-6 concentration in FS-4 fibroblast supernatant; rhTNF 7.5 ng/ml, antibody 4 µg/ml: 2.16 ng/mL
